What was measured:
[1] = system: cell surface HSP90α and β; experiment: Immunoprecipitation of cell surface HSP90 from DC2.4 living cells; format: binding; details: DC2.4 living cells incubated with antibody on ice
Protocol: Mammalian HSP90 occurs in two isoforms: HSP90α and β. The following experiment was performed to determine whether not only HSP90α but also HSP90β is recognized by the antibody of the present invention. First, DC2.4 living cells were incubated along with an antibody on ice using 6H8, 2A6 or normal mouse IgG as a negative control. After being thoroughly washed to remove the unreacted antibody, the cells were lysed; the lysate was centrifuged at 10,000×g, and the resulting supernatant was incubated along with Protein G-Sepharose. The bound material was subjected to SDS-PAGE, after which blotting was performed using an anti-HSP90α antibody (SPS-771, Assay designs), an anti-HSP90β antibody (PB-118-P1, Neomarkers), or an antibody that recognizes both HSP90α and β (6B1C4, another antibody obtained in Example 1).

[2] = system: GM-CSF-dependent bone marrow-derived dendritic cells; experiment: Cytokine production from bone marrow-derived dendritic cells on immobilized 6H8 antibody; format: cell-based; details: antibody immobilized on 96-well plate, 12 hours
Protocol: (1) […] of the 6H8 antibody diluted in PBS (10 mg/ml) was added to a 96-well flat plate (Corning Incorporated, product number 3596), and the plate was treated at 4° C. overnight. (2) The plate was washed twice with […] of PBS to remove the excess 6H8 antibody. (3) On day 5 after induction, GM-CSF-dependent bone marrow-derived dendritic cells were added to the plate from (2) at 1×10^5/well and cultured in an incubator at 37° C. with 5% CO2. (4) 12 hours after the start of cultivation, the supernatant was recovered; the amounts of cytokines and chemokines in the supernatant were determined according to a standard protocol using the Bio-Plex suspension array system with 23-Plex Panel (Bio-rad, 171-F11241).

[3] = system: OT-I CD8+ T cells; experiment: In vitro cross-presentation assay, DC2.4 cells with OT-I CD8+ T cells, IFNγ; format: cell-based, mouse
Protocol: A cross-presentation assay was performed using each fraction as an antigen. DC2.4 cells were pulsed with 5 μg/ml (30 μg/ml, only for the fraction 33) of each fraction or 1 mg/ml of free OVA for 3 hours. […]
Next, DC2.4 cells were pulsed with a series of doses of 6H8-OVA (fractions 15 to 19) and free OVA (fraction 33) and incubated along with OT-I CD8^+ T cells and OT-II CD4^+ T cells [splenocytes of an OT-II mouse were recovered, and CD11b-positive cells were removed according to a standard protocol using BD IMag anti mouse CD11b magnetic particles DM (BD Biosciences Pharmingen, 558013); next, CD4-positive cells were purified according to a standard protocol using BD IMag anti mouse CD4 particles DM (BD Biosciences Pharmingen, 551539); the cells obtained were used as the OT-II CD4^+ T cells], and the amount of IFNγ secreted from T cells was measured, whereby the cross-presentation potential of 6H8-OVA was evaluated.

[4] = system: OT-I CD8+ T cells; experiment: In vitro cross-presentation assay with BMDC of normal and FcRγ KO mouse; format: cell-based; details: BMDC pulsed 3 hours, co-culture with OT-I CD8+ T cells, IFNγ ELISA
Protocol: (1) A bone marrow-derived dendritic cells (BMDCs) were established from a normal mouse and an FcRγ KO mouse (supplied by Professor Akira Shibuya, Immunology, Life System Medical Sciences, Majors of Medical Sciences, Graduate School of Comprehensive Human Sciences, University of Tsukuba) as described below. Bone marrow was recovered from a mouse femur and tibia, and 1×10^6 cells each were cultured in a 24-well plate using 2 ml/well of a complete RPMI containing 20 ng/ml recombinant mouse GM-CSF (R&D). Half of the medium was exchanged for a fresh medium on day 3 of cultivation, and the cells obtained on day 5 of cultivation were used as the BMDC. (2) BMDCs at Day 5 induced in a GM-CSF-dependent manner was stained with biotin-6H8 (2.5 μg/ml) and streptavidin-APC (0.2 μg/ml), and its fluorescence was determined using FACS Canto (BD).
(1) A pellet of 1×10^6 BMDC cells at Day 5 induced in a GM-CSF-dependent manner were prepared in a 15-ml tube. After adding 400 μl of an antigen (6H8-OVA, OVA, or OVA257-264) thereto, the tube was incubated with 5% CO2 at 37° C. for 3 hours. The cells were fixed in 0.5% para-formaldehyde, after which the cells were washed with 0.1 M glycine and then with RPMI; thereafter, the density was adjusted to 1×10^5 cells/ml. (2) Concurrently, OT-I CD8^+ T cells were purified and the density was adjusted to 1×10^5 cells/ml. […]

Molecule	recognition of cell surface HSP90α and β on living cells (immunoprecipitation) [1]	production of IL-1α, IL-1β, IL-2, IL-4, IL-9, IL-10, IL-12(p40), IL-12(p70), IL-13, G-CSF, GM-CSF, KC, MCP-1, MIP-1α, MIP-1β, RANTES [2]	induction of IFNγ production by OT-I CD8+ T cells ([3]; DC2.4 pulsed 3 hours with fractions 15 to 21, less than 5 μg/ml protein)	effectiveness on OT-I CD8+ T cells relative to free OVA ([3]; DC2.4 pulsed with series of doses, IFNγ secreted)	cross-presentation potential of FcRγ KO mouse-derived dendritic cells compared with normal mouse-derived dendritic cells [4]
6H8: anti-HSP90 monoclonal antibody produced by hybridoma FERM BP-11222; epitope … (antibody) VH: QVQLQQSGPELVKPGASVRISCKASGYTFTSYYIHWVKQRPGQGLEWIGWIYPGNVNTKYNEKFKGKATLTADKSSSTAYMQLSSLTSEDSAVYFCARYGNYPFAYWGQGTLVTVSAAKTTAPSVYPLAPVCGDTTGSSVTLGCLVKGYF VL: DVVMTQTPLSLPVSLGDQASISCRSSQSLVHSNGNTYLHWYLQKPGQSPKLLIYKVSNRFSGVPDRFSGSGSGTDFTLKISRVEAEDLGVYFCSQSTHVPPTFGGGTKLEIKRADAAPTVSIFPPSSEQLTSGGASVVCFLNNFYPKDINVKWKIDGS	recognized	induced	–	–	–
6H8-OVA: high molecular weight conjugate of the 6H8 antibody and maleimide-activated OVA (conjugate) VH: QVQLQQSGPELVKPGASVRISCKASGYTFTSYYIHWVKQRPGQGLEWIGWIYPGNVNTKYNEKFKGKATLTADKSSSTAYMQLSSLTSEDSAVYFCARYGNYPFAYWGQGTLVTVSAAKTTAPSVYPLAPVCGDTTGSSVTLGCLVKGYF VL: DVVMTQTPLSLPVSLGDQASISCRSSQSLVHSNGNTYLHWYLQKPGQSPKLLIYKVSNRFSGVPDRFSGSGSGTDFTLKISRVEAEDLGVYFCSQSTHVPPTFGGGTKLEIKRADAAPTVSIFPPSSEQLTSGGASVVCFLNNFYPKDINVKWKIDGS GSIGAASMEFCFDVFKELKVHHANENIFYCPIAIMSALAMVYLGAKDSTRTQINKVVRFDKLPGFGDSIEAQCGTSVNVHSSLRDILNQITKPNDVYSFSLASRLYAEERYPILPEYLQCVKELYRGGLEPINFQTAADQARELINSWVESQTNGIIRNVLQPSSVDSQTAMVLVNAIVFKGLWEKAFKDEDTQAMPFRVTEQESKPVQMMYQIGLFRVASMASEKMKILELPFASGTMSMLVLLPDEVSGLEQLESIINFEKLTEWTSSNVMEERKIKVYLPRMKMEEKYNLTSVLMAMGITDVFSSSANLSGISSAESLKISQAVHAAHAEINEAGREVVGSAEAGVDAASVSEEFRADHPFLFCIKHIATNAVLFFGRCVSP	–	–	efficiently induced IFNγ production by CD8^+ T cells	at least 100 times	significantly decreased
